Here are results for 31 sequences from the supplement of paper PMC9170038.

The subject of this series is MS2 coat protein. Description: apparent KD of MS2 coat protein; designed switch direction (-1 OFF switch, 1 ON switch): -1; higher = weaker reporter binding. The essentials:
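On Illumina chips, designed RNA switches with common flanks were made by stalled E. coli RNA polymerase. Titrations with SNAP-549-labelled MS2 coat protein, doubling from 0.7 or 1.5 nM to 3 µM, were done with no input, with 200 uM small-molecule ligand, or with an oligonucleotide input. Apparent KD is the median per design over clusters, from curve fits of normalised cluster fluorescence.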

The mark [1] stands for this setting: Eterna round: R95, input ligand: microRNA oligo, concentration not stated.
Where [2] appears, read: input ligand: microRNA oligo, concentration not stated.
Setting [3] is: Eterna round: R95, input ligand: FMN 200 uM.
The mark [4] stands for this setting: Eterna round: R95, input ligand: none.

In the case of “CAGGUGUGAGGAUAUGUGAUUAUGAUAGACCGAGUCUACCCACAGAAGGCACAUGAGGAUCACCCAUGUGAGUA [Eternabot (L1) Solution 75] (Eterna round: R97, puzzle: Exclusion 4)”, the “apparent KD of MS2 coat protein” value is, setting by setting: (input ligand: FMN 200 uM) 0.122 µM; (input ligand: none) 0.0466 µM.

As for “CAGGUGUUAGGAUAUCGGAGGUUGAGGCAGACGGGAAUAUUCGAGAAGGAACAUGAGGAUCACCCAUGUAGUAG [JR_Exclu4_Sub037] (puzzle: Exclusion 4)”, the “apparent KD of MS2 coat protein” value under setting [1] is 0.0215 µM.

On to “CAGUACAGAGGAUAUACAUGAGGAUCACCCAUGUGUUCCAGCUAGGAGACUAGCAAGUGUAGAAGGCUGUACUG [Mat - Exclusion 3 - JL Mod - D8] (Eterna round: R97, puzzle: Exclusion 3)”, for which the “apparent KD of MS2 coat protein” value runs as follows: (input ligand: FMN 200 uM) 0.592 µM; (input ligand: none) 0.405 µM.

As to “CAGUACCUAGGAUAUACACGGCCACGUGAUACCAAGGAGCAACUUGAGGAUCACCCAAGUAGAAGGAGGUACUG [jl-ex2.4.42 ViennaUCT mod] (Eterna round: R97, puzzle: Exclusion 2)”, the “apparent KD of MS2 coat protein” value by setting is: (input ligand: FMN 200 uM) 3.2 µM; (input ligand: none) 0.198 µM.

“CAGUACGGAGGAUAUACAUGAGGAUCACCCAUGUGAGAGAUACUAGUGAGGUCGAUUAGUAGAAGGCUGUACUG [Mat X3R4 m6] (Eterna round: R97, puzzle: Exclusion 3)”: the “apparent KD of MS2 coat protein” value by setting is: (input ligand: FMN 200 uM) 0.501 µM; (input ligand: none) 0.0397 µM.

As for “CAGUACUGAGGAUAUACAUGAGGAUCACCCAUGUGAGAGUUACUAGUGAGGUCGAUUAGUAGAAGGCAGUACUG [Mat X3R4 m29] (Eterna round: R97, puzzle: Exclusion 3)”, the “apparent KD of MS2 coat protein” value stood at 0.215 µM (input ligand: FMN 200 uM) and 0.0396 µM (input ligand: none).

As for “CAGUACUGAGGAUAUACAUGAGGAUCACCCAUGUGUCUUCAAUUAGGAAACUAGUUAUGUAGAAGGCAGUACUG [Omei Ex3 Mod of Eli 4.27 v9] (Eterna round: R97, puzzle: Exclusion 3)”, the “apparent KD of MS2 coat protein” value is, setting by setting: (input ligand: FMN 200 uM) 0.77 µM; (input ligand: none) 0.0622 µM.

Turning to “CAGUACUGAGGAUAUACAUGAGGAUCACCCAUGUGUCUUCUCCUAGGAAACUAGGUAUGUAGAAGGCAGUACUG [Omei Ex3 Mod of Eli 4.27 v1] (Eterna round: R97, puzzle: Exclusion 3)”, the “apparent KD of MS2 coat protein” value reads like this: (input ligand: FMN 200 uM) 1.37 µM; (input ligand: none) 0.04 µM.

Take “CAGUACUGAGGAUAUACAUGAGGAUCACCCAUGUGUUCCAGCGAGGAAACUAGCAAAAGUAGAAGGCAGUACUG [salish99_ex3_r3_077] (Eterna round: R96, puzzle: Exclusion 3)”: the “apparent KD of MS2 coat protein” value came to 0.242 µM (input ligand: FMN 200 uM), 0.0156 µM under setting [2] and 0.0185 µM (input ligand: none).

For “CAGUACUGAGGAUAUACAUGAGGAUCACCCAUGUGUUCCAGCGAGGAAACUAGCAAAAGUAGAAGGCAGUACUG [salish99_ex3_r3_077] (puzzle: Exclusion 3)”, the “apparent KD of MS2 coat protein” value reads like this: under setting [3], 0.199 µM; under setting [1], 0.0184 µM; under setting [4], 0.0175 µM.

In the case of “CAGUACUGAGGAUAUACAUGAGGAUCACCCAUGUGUUCCAGGUAGGAAACUAGCAAAAGUAGAAGGCAGUACUG [salish99_ex3_r3_078] (Eterna round: R96, puzzle: Exclusion 3)”, the “apparent KD of MS2 coat protein” value under setting [2] is 0.0175 µM.

Take “CAGUACUGAGGAUAUACAUGAGGAUCACCCAUGUGUUCCAGGUAGGAAACUAGCAAAAGUAGAAGGCAGUACUG [salish99_ex3_r3_078] (puzzle: Exclusion 3)”: the “apparent KD of MS2 coat protein” value amounted to 0.0997 µM under setting [3], 0.0202 µM under setting [1] and 0.0204 µM under setting [4].

Take “CAGUACUGAGGAUAUACAUGAGGAUCACCCAUGUGUUCCUGCUAGGAAACUAGCAAAGGUAGAAGGCAGUACUG [Salish 065 m3] (Eterna round: R97, puzzle: Exclusion 3)”: the “apparent KD of MS2 coat protein” value (input ligand: FMN 200 uM) came to 0.464 µM and the “apparent KD of MS2 coat protein” value (input ligand: none) is 0.0279 µM.

Turning to “CAGUACUGAGGAUAUACAUGAGGAUCACCCAUGUGUUUUCUAUUAGGAAACUAGUUAUGUAGAAGGCAGUACUG [Omei Ex3 Mod of Eli 4.27 v11] (Eterna round: R97, puzzle: Exclusion 3)”, the “apparent KD of MS2 coat protein” value (input ligand: FMN 200 uM) is 0.304 µM and the “apparent KD of MS2 coat protein” value (input ligand: none) was found to be 0.04 µM.

For “CAGUCGAUAAGAUCAAUUAAUUAACAUGAGGAUCACCCAUGUGAGGAUAUCAGCUCGAUUAGAGCUGAGAAGGCACAACGACUG [ExNG3/17-A1] (Eterna round: R96, puzzle: Exclusion NG 3)”, the “apparent KD of MS2 coat protein” value (input ligand: FMN 200 uM) stood at 0.232 µM, the “apparent KD of MS2 coat protein” value under setting [2] is 0.0313 µM and the “apparent KD of MS2 coat protein” value (input ligand: none) turned out to be 0.0468 µM.

As for “CAGUGACAUGAGGAUCACCCAUGUUAGGAUAUCCGCAAAGGGAGUAGGAUUCCCAUUUGGAGAAGGGACAGGUG [Eternabot (L1) Solution 95] (Eterna round: R97, puzzle: Exclusion 1)”, the “apparent KD of MS2 coat protein” value (input ligand: FMN 200 uM) turned out to be 0.0725 µM and the “apparent KD of MS2 coat protein” value (input ligand: none) was determined as 0.0526 µM.

As to “CAUAAUUUUCGGAAUAUGUACAUGAGGAUCACCCAUGUGACGAGUUACAUGAUUAACAAGCUUUUUGCUCGUCUUAU [Sensor v3 - Turn-off variant 1 - 12] (puzzle: Sensor v3, turn-off variant 1)”, the “apparent KD of MS2 coat protein” value runs as follows: under setting [3], 0.118 µM; under setting [1], 0.0319 µM; under setting [4], 0.207 µM.

In the case of “CAUACACAUGAGGAUCACCCAUGUGAGGAUAUGCGUACGUUGUCCGUAGGCGACGUGCGCAGAAGGCGCGAGGU [JL-ex1-3.16 Eli mod] (puzzle: Exclusion 1)”, the “apparent KD of MS2 coat protein” value under setting [1] stood at 0.0284 µM.

Regarding “CAUCAGAUAGGAUAUACAGGCCCGUCUUUAUAUUGAUCCCGACAUGAGGAUCACCCAUGUAGAAGGAUCAGAUG [Mod 27 - Jieux - Exclusion 2] (Eterna round: R97, puzzle: Exclusion 2)”, the “apparent KD of MS2 coat protein” value (input ligand: FMN 200 uM) turned out to be 0.0212 µM and the “apparent KD of MS2 coat protein” value (input ligand: none) was found to be 0.0161 µM.

Turning to “CAUCUGUGAGGAUAUGGUGAGUAGUGCCUGAGCGCUGCUCACCAGAAGGCACAUGAGGAUCACCCAUGUAUGAC [JL-ex4-2.01 denovo] (Eterna round: R96, puzzle: Exclusion 4)”, the “apparent KD of MS2 coat protein” value was found to be 0.319 µM (input ligand: FMN 200 uM), 0.0463 µM under setting [2] and 0.07 µM (input ligand: none).

“CAUCUGUGAGGAUAUGGUGAGUAGUGCCUGAGCGCUGCUCACCAGAAGGCACAUGAGGAUCACCCAUGUAUGAC [JL-ex4-2.01 denovo] (puzzle: Exclusion 4)”: the “apparent KD of MS2 coat protein” value under setting [1] came out at 0.0437 µM.

As to “CAUGAUCUUCGGAUCAUGUACAUGAGGAUCACCCAUGUGACGAGUUGAUCCUCAUACAAGCUUUUUGCUCGUCUUAU [Sensor v3 - Turn-off variant 1 - 15] (puzzle: Sensor v3, turn-off variant 1)”, the “apparent KD of MS2 coat protein” value under setting [3] was determined as 0.0268 µM, the “apparent KD of MS2 coat protein” value under setting [1] stood at 0.0167 µM and the “apparent KD of MS2 coat protein” value under setting [4] worked out at 0.0244 µM.

Take “CAUGAUUGGGAAGGAUAUUGACCUAGUUAGCGCCGAGAAGGUCCCUUUCACAUGAGGAUCACCCAUGUGAGUCUGGUGUUCGAG [Ex NG1 #96] (Eterna round: R96, puzzle: Exclusion NG 1)”: the “apparent KD of MS2 coat protein” value was 0.0377 µM (input ligand: FMN 200 uM), 0.0268 µM under setting [2] and 0.0376 µM (input ligand: none).

As to “CAUGUUGACAGAGGAUAUGCAAUGUGAUUUAGGGUAGAAGGCUGAGACAUGAGGAUCACCCAUGUGGGUGCGUUCUAGCGACAA [Atmala] (Eterna round: R96, puzzle: Exclusion NG 1)”, the “apparent KD of MS2 coat protein” value is 0.15 µM (input ligand: FMN 200 uM), 0.0194 µM under setting [2] and 0.034 µM (input ligand: none).

“CAUUAUUAUCGAGGAUAUCCUAUUGAAAUUCUGGGAGAAGGCGGACUCAACAUGAGGAUCACCCAUGUGAGACGGGUGCUAGGG [Ex NG1 #26] (Eterna round: R96, puzzle: Exclusion NG 1)”: the “apparent KD of MS2 coat protein” value under setting [2] was 0.0196 µM.

Regarding “CCAAACUGAGGAUAUACAUGAGGAUCACCCAUGUGCCCGCGGUCAUAUGUAGCCUAGUGUAGAAGGCAGAAAAC [Rearle] (Eterna round: R96, puzzle: Exclusion 3)”, the “apparent KD of MS2 coat protein” value amounted to 0.0249 µM (input ligand: FMN 200 uM), 0.0418 µM under setting [2] and 0.0509 µM (input ligand: none).

Take “CCAAACUGAGGAUAUACAUGAGGAUCACCCAUGUGCCCGCGGUCAUAUGUAGCCUAGUGUAGAAGGCAGAAAAC [Rearle] (puzzle: Exclusion 3)”: the “apparent KD of MS2 coat protein” value under setting [1] amounted to 0.033 µM.

Consider “CCAACUCAGGAGGAUAUCUCCGCGAGUUCACGAAGAGAAGGCCUGACAUGAGGAUCACCCAUGUGUCCAUGAGG [Eternabot (Original) Solution 8] (Eterna round: R97, puzzle: Exclusion 6)”, for which the “apparent KD of MS2 coat protein” value is 0.106 µM (input ligand: FMN 200 uM) and 0.0696 µM (input ligand: none).

Turning to “CCAAGAUAGGAAGGAUAUUGUACAUGAGGAUCACCCAUGUAAUAAAUGAGGAUCACGGAUGUAGACAAGAAGGUCCGGAUAAGC [Ostracism 5 - Jieux - Exclusion NG 2] (Eterna round: R96, puzzle: Exclusion NG 2)”, the “apparent KD of MS2 coat protein” value worked out at 0.0841 µM (input ligand: FMN 200 uM), 0.0251 µM under setting [2] and 0.0451 µM (input ligand: none).

As to “CCAAGCUUAUUCAUUAACCACAUGAGGAUCACCCAUGUCUAGGCAAUUAUGACUUGCCCAUCUGGUGCUCGUCUUAU [Sensor-V1 #32] (Eterna round: R97, puzzle: Sensor, turn-off variant 1)”, the “apparent KD of MS2 coat protein” value turned out to be 0.032 µM (input ligand: FMN 200 uM) and 0.0327 µM (input ligand: none).

Regarding “CCAAGCUUGUUCAUUAACCACAUGAGGAUCACCCAUGUCUUGGCAAUUAUGACCUGCCCGUCAGGUGCUCGUCUUAU [Sensor-V1 #36] (Eterna round: R97, puzzle: Sensor, turn-off variant 1)”, the “apparent KD of MS2 coat protein” value turned out to be 0.045 µM (input ligand: FMN 200 uM) and 0.0481 µM (input ligand: none).
